In the DeepSol protein solubility set:

Assay: soluble on expression in E. coli; label from the status in PepcDB or PDB records

MVVRTWRSMQERYNLIGSKCKTCGTVYFPARSVCPECRRKGELEDYKLNGKGKVYTYSVVYAAPKDFEKQSPYVIGIVELEEGTKITSQIDCEPEEVKIGMPVEATFRKIREDGCDGVISYGYKFVPTEQ
soluble on expression in E. coli: not soluble

SAPSQAPSRDRAGQEDEDRWEARGDRKARKPLVEKKRRARINESLQELRLLLAGTEVQAKLENAEVLELTVRRVQGALRGRAREREQLQAEASERFAAGYIQCMHEVHTFVSTCQAIDATVSAELLNHLLESMPLREGSSFQDLLGDSLAGLPGGSGRSSWPPGGSPESPLSSPPGPGDDLCSDLEEIPEAELNRVPAEGPDLVSTSLGSLTAARRAQSVWRPW
soluble on expression in E. coli: soluble

MGSDKIHHHHHHALKKIYPHATNVSWSQQGNYYVASFTQNGFEKEVWMNGNAQWVMTNTDLQTTDQLTPNVYNDFTLSPYAMWTATNVNLIEFPKRTTLYVITVNLNNSSATKQLFYTLNGRLLQTRDVSYINPTLSPGIFEF
soluble on expression in E. coli: not soluble

MGSDKIHHHHHHMTPVLSLDMEDPIRFIDENGSFEVVKVGHNLAIHGKKIFDELAKRNLKIILDLKFCDIPSTVERSIKSWDHPAIIGFTVHSCAGYESVERALSATDKHVFVVVKLTSMEGSLEDYMDRIEKLNKLGCDFVLPGPWAKALREKIKGKILVPGIRMEVKADDQKDVVTLEEMKGIANFAVLGREIYLSENPREKIKRIKEMRL
soluble on expression in E. coli: soluble

MGSDKIHHHHHHMPSERASSFDIMLWVLSGCSELLYGTQALPLTGKVDRIFGPAREPRDVRVLNYLELADRLDRSGIGTAVDHQRAALSETDIEVETTPWQEGHPAWALGGNIAFNDPMFREFDIAHCNMIGPGSVAVARYAAQADIPLVLHAHVTREDFRDSFRGSNLIAPVLGRYLRWFYSQADLVLCPSEYTKGILESYPVDAPIRPMTNGVDIDALAGHEDMREDYRRRYDLDGMVVFAVGNVFERKGLTTFCELAQETEHDFAWFGPYDAGPQASKTVSRWVNNPPENVTFTGWVEDIRGAFGAGDVYLFPTKAENQGIAVLEAMACGKAVVLSDIPVFREYYEDGHDCLICADEAEFREALERLAENPDLRERLGENARETAREHSLDRVSRRLVETYEELA
soluble on expression in E. coli: not soluble

MADRRNLFFFYGDDKATLVEKMKPIYRILEENGFTILDHPKNANAIVSVGDDATFLQAVRKTGFREDCLYAGISTKDEISFYCDFHIDHVDTALQEITKNEIEVRKYPTIQVDVDGSTSFHCLNEFSLRSSIIKTFVVDVHVDDLYFETFRGDGLVVSTPTGSTAYNKSLHGAVVDPLIPCFQVSELASLNNNTYRTLGSPFILNHERTLTLKLRPDGNDYPVIGMDNEALSIKQVEKAVVRLSDKQIKTVKLKNNSFWEKVQRTFLLEHHHHHH
soluble on expression in E. coli: soluble

MPEALRTQIDELNSWIYDKVNNGVYKAGFATTQSAYDESASTVFAALSDLETILAKQRYLTGEQLTEADLRLWTTLIRFDPVYHTHFKCDKYRLSDYPNLFGFLRDIYQMPGIAETVDMAHIRHHYYRSHGTINPHGVISLGPEQDLNQPHQRDKKFVDLYLEHHHHHH
soluble on expression in E. coli: soluble

PESPLRSGRREIANILGVAAQVQRQVAEALRNNNTDGIVDALVRARGTQGQINQMIAAANMGKETIQASPLLWAQRQRIRSMMRILNPVDNAMRNTRVLARRALVLCEDNDEVSGRQIQIIEQLAEVSEDLSNLYYGNSKLSENAEIPRLVNNLKMIGSRTGLEVSEGKVLSAQVVLAQSRSLVVDLLQICGQSRRSAVEILSPTSMHPASVKEIWNDDV
soluble on expression in E. coli: not soluble

MSENENSQEKNELLDALNSVEEVNVGDVVKGEVLAIDDDKQVIVGIQGTGVEGVVPLKELSTQRVDDVNEAAKVGDVLDLVVISRIGSDKENGSYLLSHRRLEARKVWDDVEKEYEAGHTIKAPVTQVVKGGLVVDAGVRGFIPASMIDDHYVEDLNAYKGQELELKIIEIEPSENRLILSHRAVVEKQREAQREEALKTLQAGDVVEGKVARLTNFGAFVDLGGIDGLVHVSEISYERVEKPADVLKVGQEVTVKILSVDADRERVSLSIKATLPEPWDGIEEKAPQGAVLDGKVKRLTSFGAFVEVFPGVEGLVHISQISHQHIATPNDVLKVGQEIKVKVLDVRPDEKRLALSIKALEEKPQTADDDNESQPERRSNNNRRRNNNRDNRTASERSTANAPEESTGFTLGDLIGDELKNAESNNDENLEHHHHHH
soluble on expression in E. coli: not soluble

SKSGAQTPKSPPEHYVQETPLMFSRCTSVSSLDSFESRSIASSVQSEPCSGMVSGIISPSDLPDSPGQTMPPSRSKTPPPPPQTAQTKREVPKNKAPTAEKRESGPKQAAVNAAVQRVQVLPDADTLLHFATESTPDGFSCSSSLSALSLDEPFIQKDVELRIMPPVQENDNGNETESE
soluble on expression in E. coli: soluble

LPIISIDTKQQVIPLVTKEGGKYVKARDNINVDIELRDSPSRSHHLSEKPRIRTKGLISYRGNTSRYFDKKSLKVKFVTNKLKEKKHRLAGMPKESEWVLHGPFLDRTLLRNYLSYNIAGEIMSYAPNVRYCELFVNGEYQGVYLAVENIEQGEQRVPIEKSDKKLHKTPYIVAWDREHKAKQKLDNYVHYTHQSGISALDVKYPGKQRLTSKQLEFINKDINHIEKVLYSYDFSQYPKYIDRESFANYFVINEFFRNVDAGKFSTYLYKDLRDRAKLVVWDFNNAFDNQIEGRVDEADFTLTDAPWFNMLIKDKAFIDLVVHRYKELRKGVLATEYLSNYIDETRHFLGPAIDRNYKKWGYVFDLKNTDPRNYLIPTERNVTSYHKSVEQLKDFIKKRGRWMDRNIETLYQYSAPSKNTNTLLE
soluble on expression in E. coli: not soluble

AAKEEADSRISPGNIFEEKAKFLVMMESSIYAAKRGDALIAQILILAGRLSKNEAPKEALLFMEKTITGEIDLSVAKNLLIAYMRIRREEKQRDLNSVKNDDAIPSDINIDDLTNT
soluble on expression in E. coli: not soluble

MGSDKIHHHHHHMNLPSILVIDDLPDNFDVIETLLSEQDYTLHYVASGQEAIASLNLFQPDLILLDVMMPGMDGIEVCQRIKAMPQWQSVPIIMVTALTAKEDLARCLKSGADDFISKPINALELRARLHSMLRIKQQYDKIQTLSNIQTSTIKVLESTLDELRGNLAAALPHELNTPLNGIVGTISILMADIENMDTGEIQELLGWVDLSARNLERLIKQLLLYLELELSTNQQQNIASESTHFSIAVIEAILQSHAPSVNRRDDLMFAIEEAEVSISARYLAIIIYELVDNALKFSRRGTTIKISSQVVAGMLNVYIHDFGRGMTEEQISKIGAFMQFERKTYEQQGIGMGLKLAKQIIESHGGLFSISSVYKKETMVHIALPIAYSRYLS
soluble on expression in E. coli: not soluble

MRSSAKQEELVKAFKALLKEEKFSSQGEIVAALQEQGFDNINQSKVSRMLTKFGAVRTRNAKMEMVYCLPAELGVPTT
soluble on expression in E. coli: soluble

MTVVKEELKEALEMLKNTGVRITPQRHAILEYLVESMTHPTADDIYKALEGKFPNMSVATVYNNLRVFKEVGLVKELTYGDASSRFDYVTSQHYHVICEKCGKIVDFPYGGLEKLEEEAAKTTGFVINSHRLEIYGVCPECHKA
soluble on expression in E. coli: not soluble

PVNQKSKRSELSQRRIRRPFSVAEVEALVEAVEHLGTGRWRDVKMRAFDNADHRTYVDLKDKWKTLVHTASIAPQQRRGEPVPQDLLDRVLAAHAYWSQQQGKQHVEPLKILDAKAQKVGA
soluble on expression in E. coli: soluble

MAILGLGTDIVEISRIQAVVERTGERLARRILSPSEWQHYQQHQQPVRFLAKRFAVKEAAAKAFGTGIRNGLAFNQFEVVNDALGKPTLRLHSRAAELAVELGVKSLHVTLADERRYACATVIIES
soluble on expression in E. coli: not soluble

MGSDKIHHHHHHMEDTQSVLQEYGLTAQFIEPVSPLVWKVYTDYGIFALKKLKEGRGKHFTDHMVAIEEKGFRSFVPVYRTNSGEFFSAGIQYGDIYYLMPWLQFDQEEERDQKHAYLFRETARLHERTAQELKVRRDEIERYYGQTKKKWEQDKIFYEQFVDRAEKEWYLSPFELQAITYFSETISAVNFALERLEDWYESAKEKDVSRVVMNHGSLSIHHFLYNDAGTGYFTNFERASVGPPQNDLLGFYTKMFRGFPKACPECVEWFYGYTKSFPLREAEVSLFLSYMAYPAAMYKVLNGYQTGKRQHEKEECTQLLKAYWQMKNIEPFVMKIHQIEQEKKFQAENESTS
soluble on expression in E. coli: not soluble

GGDFREYRDLMDTQVVLGFEGRPYHARDFYAAQILSIILGGGMSSRLFQEVREKRGLCYSIYAFHWGFSDIGLFGLHAATGQEKLKELLPVILDELSKVSKNIHTNELQRARAQYRATLTMAQENPSSQANFIARQILLYGREIPLSETIERLELITPARLTDLAGRLFINATPTLAAVGPVGSLMNFDNLTSTL
soluble on expression in E. coli: not soluble

MIVPEVSSSSTNEANVPESSAGKYTYKDIRDDRVLTYFDLRRGESKTFTVRLQATYAGNFILPAIQCEAMYDAAVQARTKAGRTTVSR
soluble on expression in E. coli: not soluble

MGHHHHHHSHMAAPGLRLGAGRLFEMPAVLERLSRYNSTSQAFAEVLRLPKQQLRKLLYPLQEVERFLAPYGRQDLHLRIFDPSPEDIARADNIFTATERNRIDYVSSAVRIDHAPDLPRPELEENIFISG
soluble on expression in E. coli: not soluble

MATQQPALVLDPTGADHHTEHRTLREGGPATWVDVLGVQAWSVSDPVLLKQLLTSSDVSKDARAHWPAFGEVVGTWPLALWVAVENMFTAYGPNHRKLRRLVAPAFSARRVDAMRPAVEAMVTGLVDRLAELPAGEPVDLRQELAYPLPIAVIGHLMGVPQDRRDGFRALVDGVFDTTLDQAEAQANTARLYEVLDQLIAAKRATPGDDMTSLLIAARDDEGDGDRLSPEELRDTLLLMISAGYETTVNVIDQAVHTLLTRPDQLALVRKGEVTWADVVEETLRHEPAVKHLPLRYAVTDIALPDGRTIARGEPILASYAAANRHPDWHEDADTFDATRTVKEHLAFGHGVHFCLGAPLARMEVTLALESLFGRFPDLRLADPAEELPPVPSLISNGHQRLPVLLHAG
soluble on expression in E. coli: soluble

MYIPPYKADDQDIVVELNSRFGAETFTVQPTRTGMPVLWVPRERLIEVLTFLRQVPKPYVMLYDLHGVDERLRTHRRGLPSADFSVFYHLMSLERNSDVMIKVALSERDLNLPTATRIWPNANWYEREVWDMYGITFTGHPHLTRMLMPPTWQGHPLRKDYPARATEFDPYSLSAAKQDLEQEALRFKPEDWGMKRHGENEDYMFLNLGPNHPSAHGAFRIILQLDGEEIIDCVPEIGYHHRGAEKMAERQSWHSFIPYTDRIDYLGGVMNNLPYVLSVEKLAGIKVPQRVDVIRIMMAEFFRILNHLLYLGTYIQDVGAMTPVFFTFTDRQRAYKVVEAITGFRLHPAWYRIGGVAHDLPRGWDKLVREFLDWMPKRLDEYETAALKNSILRGRTIGVAQYNTKEALEWGTTGAGLRATGCDFDLRKARPYSGYENFEFEVPLAHNGDAYDRCMVKMGEMRQSLRIIEQCLKNMPEGPYKADHPLTTPPPKERTLQHIETLITHFLQVSWGPVMPANEAFQMIEATKGINSYYLTSDGSTMSYRTRIRTPSFAHLQQIPSVINGSM
soluble on expression in E. coli: not soluble

MGSDKIHHHHHHMATVDLSQLPQPQIIEVLDFEVILREVKAVMIAAFPANQQASVTAALELESEPLNQIAQVIAYRELMLRQRINEGAASCMLSHAVSSDLDNLAANLNTERLVITAETETADAVMENDAAFRLRAQSAFEGLSVAGPTAAYEYFAKSASGKVKDAKAISPSPAVVVVSVISSEANGTASSELLSTVETALSAEDKRPVADRLTVQSAEIVDFAINAVLYLYPGPESEPIHTAAQKALQSWIGEQGMIGRDVARSSIMAALHVQGVQRVSVVEPPHDIVISDTQAAYCTGFTVTTGGIDG
soluble on expression in E. coli: not soluble

MTTVRQRIDTQHRDAIHDAQLNIYGSRLATCGSDRLVKIFEVRPNGQSYPMAELVGHSGPVWKVSWAHPKYGGLLASASYDKKVIIWNEQQGRWQKAYEWAAHEASTTCVAFAPHQYGLMLASASADGDIGILRYDNSSNEWISSKIQKCHEQGVNSVCWAPGSADPAAKKRLVSAGNDKNVKIWALSQFGAKIFRDNGSKCHVTIRNARE
soluble on expression in E. coli: soluble
